In patent US12104181B2, “Compositions and methods for treating viral infections targeting TRIM7” (THE BOARD OF REGENTS OF THE UNIVERSITY OF TEXAS SYSTEM, priority 2021, dated 2024):

B1: MARCH2: human RING type E3 ligase expressed from lentiviral vector (protein, UniProt Q9P0N8 1-246, looked up)
E3 ubiquitin-protein ligase …: MTTGDCCHLPGSLCDCSGSPAFSKVVEATGLGPPQYVAQVTSRDGRLLSTVIRALDTPSDGPFCRICHEGANGECLLSPCGCTGTLGAVHKSCLEKWLSSSNTSYCELCHTEFAVEKRPRPLTEWLKDPGPRTEKRTLCCDMVCFLFITPLAAISGWLCLRGAQDHLRLHSQLEAVGLIALTIALFTIYVLWTLVSFRYHCQLYSEWRKTNQKVRLKIREADSPEGPQHSPLAAGLLKKVAEETPV
B2: RNFT1: human RING type E3 ligase expressed from lentiviral vector (protein, UniProt Q5M7Z0 1-435, looked up)
E3 ubiquitin-protein ligase …: MPLFLLSLPTPPSASGHERRQRPEAKTSGSEKKYLRAMQANRSQLHSPPGTGSSEDASTPQCVHTRLTGEGSCPHSGDVHIQINSIPKECAENASSRNIRSGVHSCAHGCVHSRLRGHSHSEARLTDDTAAESGDHGSSSFSEFRYLFKWLQKSLPYILILSVKLVMQHITGISLGIGLLTTFMYANKSIVNQVFLRERSSKIQCAWLLVFLAGSSVLLYYTFHSQSLYYSLIFLNPTLDHLSFWEVFWIVGITDFILKFFFMGLKCLILLVPSFIMPFKSKGYWYMLLEELCQYYRTFVPIPVWFRYLISYGEFGNVTRWSLGILLALLYLILKLLEFFGHLRTFRQVLRIFFTQPSYGVAASKRQCSDVDDICSICQAEFQKPILLICQHIFCEECMTLWFNREKTCPLCRTVISDHINKWKDGATSSHLQIY
modifications: lentiviral expression
notes: human RING type E3 ligase expressed from lentiviral vector
B3: RNF121: human RING type E3 ligase expressed from lentiviral vector (protein, UniProt Q9H920 2-327, looked up)
E3 ubiquitin ligase RNF121: AAVVEVEVGGGAAGERELDEVDMSDLSPEEQWRVEHARMHAKHRGHEAMHAEMVLILIATLVVAQLLLVQWKQRHPRSYNMVTLFQMWVVPLYFTVKLHWWRFLVIWILFSAVTAFVTFRATRKPLVQTTPRLVYKWFLLIYKISYATGIVGYMAVMFTLFGLNLLFKIKPEDAMDFGISLLFYGLYYGVLERDFAEMCADYMASTIGFYSESGMPTKHLSDSVCAVCGQQIFVDVSEEGIIENTYRLSCNHVFHEFCIRGWCIVGKKQTCPYCKEKVDLKRMFSNPWERPHVMYGQLLDWLRYLVAWQPVIIGVVQGINYILGLE
B4: RNF14: human RING type E3 ligase expressed from lentiviral vector (protein, UniProt Q9UBS8 1-474, looked up)
E3 ubiquitin-protein ligase …: MSSEDREAQEDELLALASIYDGDEFRKAESVQGGETRIYLDLPQNFKIFVSGNSNECLQNSGFEYTICFLPPLVLNFELPPDYPSSSPPSFTLSGKWLSPTQLSALCKHLDNLWEEHRGSVVLFAWMQFLKEETLAYLNIVSPFELKIGSQKKVQRRTAQASPNTELDFGGAAGSDVDQEEIVDERAVQDVESLSNLIQEILDFDQAQQIKCFNSKLFLCSICFCEKLGSECMYFLECRHVYCKACLKDYFEIQIRDGQVQCLNCPEPKCPSVATPGQVKELVEAELFARYDRLLLQSSLDLMADVVYCPRPCCQLPVMQEPGCTMGICSSCNFAFCTLCRLTYHGVSPCKVTAEKLMDLRNEYLQADEANKRLLDQRYGKRVIQKALEEMESKEWLEKNSKSCPCCGTPIEKLDGCNKMTCTGCMQYFCWICMGSLSRANPYKHFNDPGSPCFNRLFYAVDVDDDIWEDEVED
modifications: lentiviral expression
notes: as for B2
B5: RNF8: human RING type E3 ligase expressed from lentiviral vector (protein, UniProt O76064 1-485, looked up)
E3 ubiquitin-protein ligase …: MGEPGFFVTGDRAGGRSWCLRRVGMSAGWLLLEDGCEVTVGRGFGVTYQLVSKICPLMISRNHCVLKQNPEGQWTIMDNKSLNGVWLNRARLEPLRVYSIHQGDYIQLGVPLENKENAEYEYEVTEEDWETIYPCLSPKNDQMIEKNKELRTKRKFSLDELAGPGAEGPSNLKSKINKVSCESGQPVKSQGKGEVASTPSDNLDPKLTALEPSKTTGAPIYPGFPKVTEVHHEQKASNSSASQRSLQMFKVTMSRILRLKIQMQEKHEAVMNVKKQTQKGNSKKVVQMEQELQDLQSQLCAEQAQQQARVEQLEKTFQEEEQHLQGLEIAQGEKDLKQQLAQALQEHWALMEELNRSKKDFEAIIQAKNKELEQTKEEKEKMQAQKEEVLSHMNDVLENELQCIICSEYFIEAVTLNCAHSFCSYCINEWMKRKIECPICRKDIKSKTYSLVLDNCINKMVNNLSSEVKERRIVLIRERKAKRLF
modifications: lentiviral expression
notes: as for B2
B6: RNF150: human RING type E3 ligase expressed from lentiviral vector (protein, UniProt Q9ULK6 35-438, looked up)
RING finger protein 150: EKEEWYTAFVNITYAEPAPDPGAGAAGGGGAELHTEKTECGRYGEHSPKQDARGEVVMASSAHDRLACDPNTKFAAPTRGKNWIALIPKGNCTYRDKIRNAFLQNASAVVIFNVGSNTNETITMPHAGVEDIVAIMIPEPKGKEIVSLLERNITVTMYITIGTRNLQKYVSRTSVVFVSISFIVLMIISLAWLVFYYIQRFRYANARDRNQRRLGDAAKKAISKLQIRTIKKGDKETESDFDNCAVCIEGYKPNDVVRILPCRHLFHKSCVDPWLLDHRTCPMCKMNILKALGIPPNADCMDDLPTDFEGSLGGPPTNQITGASDTTVNESSVTLDPAVRTVGALQVVQDTDPIPQEGDVIFTTNSEQEPAVSSDSDISLIMAMEVGLSDVELSTDQDCEEVKS
B7: RNF144A: human RING type E3 ligase expressed from lentiviral vector (protein, UniProt P50876 1-292, looked up)
E3 ubiquitin-protein ligase …: MTTTRYRPTWDLALDPLVSCKLCLGEYPVEQMTTIAQCQCIFCTLCLKQYVELLIKEGLETAISCPDAACPKQGHLQENEIECMVAAEIMQRYKKLQFEREVLFDPCRTWCPASTCQAVCQLQDVGLQTPQPVQCKACRMEFCSTCKASWHPGQGCPETMPITFLPGETSAAFKMEEDDAPIKRCPKCKVYIERDEGCAQMMCKNCKHAFCWYCLESLDDDFLLIHYDKGPCRNKLGHSRASVIWHRTQVVGIFAGFGLLLLVASPFLLLATPFVLCCKCKCSKGDDDPLPT
B8: RFPL2: human RING type E3 ligase expressed from lentiviral vector (protein, UniProt O75678 1-378, looked up)
Ret finger protein-like 2: MEVAELGFPETAVSQSRICLCAVLCGHWDFADMMVIRSLSLIRLEGVEGRDPVGGGNLTNKRPSCAPSPQDLSAQWKQLEDRGASSRRVDMAALFQEASSCPVCSDYLEKPMSLECGCAVCLKCINSLQKEPHGEDLLCCCSSMVSRKNKIRRNRQLERLASHIKELEPKLKKILQMNPRMRKFQVDMTLDANTANNFLLISDDLRSVRSGRIRQNRQDLAERFDVSVCILGSPRFTCGRHCWEVDVGTSTEWDLGVCRESVHRKGRIQLTTELGFWTVSLRDGGRLSATTVPLTFLFVDRKLQRVGIFLDMGMQNVSFFDAESGSHVYTFRSVSAEEPLRPFLAPSVPPNGDQGVLSICPLMNSGTTDAPVRPGEAK
modifications: lentiviral expression
notes: as for B2

Test system: coxsackievirus B3 (CVB3-GFP)
Assay type: cell-based
Settings: HeLa cells, GFP-positive cells within RFP-positive gate, replicate R1

| Molecule | Percent Infected R1 [%] |
| --- | --- |
| B1 | 92.4 |
| B2 | 95.2 |
| B3 | 84.1 |
| B4 | 95.5 |
| B5 | 82.8 |
| B6 | 91.1 |
| B7 | 97.7 |
| B8 | 93.8 |

Same assay, conditions: HeLa cells, replicate R1

| Molecule | Z score R1 |
| --- | --- |
| B1 | 0.05 |
| B2 | 0.08 |
| B3 | −0.06 |
| B4 | 0.09 |
| B5 | −0.07 |
| B6 | 0.03 |
| B7 | 0.12 |
| B8 | 0.07 |
